Measured values: US20110171681

What was measured:
[1] = molecular target: cyclin-dependent kinase inhibitor p57(kip2) (UniProt P49919)
[2] = molecular target: cell surface beta1,4-galactosyltransferase I (GalT), mouse, endogenous (UniProt P15535)

## His tagged GTAP
[1]
  in vitro ubiquitination of p57 with biotinylated ubiquitin: GTAP increased the ubiquitination of p57 only in the presence of E1
[2]
  in vitro ubiquitination of immunoprecipitated GalT: Surprisingly GTAP had no effect on immunoprecipitated GalT in an in vitro ubiquitin system
